Positions count from the first letter of the chain named. Blank lines part the entries; values can stand above or below the binder they belong to.
Experiments:
[1] = target: T1, human B7S1 (NCBI Reference Sequence: NP_078902.2) expressed on a cell surface (human, UniProt Q7Z7D3 25-282); experiment: flow cytometry on LPS-stimulated human PBMCs (percentage of live PBMC stained), detection with Alexa Fluor 594 goat anti-human IgG
T1 construct: whole, on cells; the assay field says which cells were used; also called B7S1 overexpressed on cell surface; B7S1 transfected BaF3 cell line
T1 sequence (looked up): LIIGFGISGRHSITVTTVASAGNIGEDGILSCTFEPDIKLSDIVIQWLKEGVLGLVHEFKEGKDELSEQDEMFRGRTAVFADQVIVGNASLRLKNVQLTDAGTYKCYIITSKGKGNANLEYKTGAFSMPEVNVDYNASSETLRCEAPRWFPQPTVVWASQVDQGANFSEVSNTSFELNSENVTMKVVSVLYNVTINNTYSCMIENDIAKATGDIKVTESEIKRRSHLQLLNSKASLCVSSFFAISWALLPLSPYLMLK
Method: (§1) Peripheral blood mononuclear cells (PBMCs) contain monocytes which under stimulation would up-regulate B7S1 expression on cell surface. This example is to evaluate humanized anti-B7S1 antibody binding affinity on monocytes. Human buffy coat was diluted with PBS to according volume as twice as Ficoll (GE, 17-1440-02). The diluted buffy coat was layered gently on top of Ficoll and centrifuged at 2500 rpm for 40 min at 20° C. without brake. Carefully draw off PBMCs layer in between Ficoll and its transparent supernatant. PBS was added to 5 volumes of PBMCs and centrifuged at 1200 rpm for 10 min at 20° C. Discard supernatant and wash with PBS again. To eliminate platelets, centrifuge at 900 rpm for 8 min at 20° C. PBMCs were resuspended with culture medium (RPMI-1640 with 10% FBS and 1% PS), counted and aliquot to 96-well plate (5×10\hat{ }5 cells/well) with LPS added (100 ng/ml). After 24h incubation, cells were washed with PBS twice. For live/dead stain, LIVE/DEAD® Fixable Aqua Dead Cell Stain Kit (Life technologies, L34957) was applied (1:1000 in PBS, 100 ul/well) to cells, and incubated at 4° C. for 10 min FACS buffer (2% FBS in PBS, 100 ul/well) was added to each well to terminate staining. Centrifuge (1200 rpm, 5 min) to discard supernatant and wash with FACS buffer once. Humanized anti-B7S1 antibodies were diluted in FACS buffer to according concentrations and added to each well (100 ul/well). Cells were incubated at 4° C. for 30 min, and then, washed twice with FACS buffer. […] Cells were incubated at 4° C. for 30 min, and then, washed twice with FACS buffer. Cells were tested on flow cytometry. […] The mAbs meet the requirements for binding profile of antibody drugs.

[2] = target: T1, human B7S1 (NCBI Reference Sequence: …); experiment: flow cytometry, LPS-stimulated human PBMCs
Method: as §1

[3] = target: T1, human B7S1 (NCBI Reference Sequence: …); experiment: flow cytometry (mean fluorescence intensity) on BaF3 cells expressing human B7S1, detection with Alexa Fluor 594 goat anti-human IgG
Method: To evaluate anti-B7S1 antibody binding affinity on cell surface over expressing B7S1, human B7S1 (NCBI Reference Sequence: NP_078902.2) was constructed on BaF3 cell line. The cells were washed with PBS and aliquot to 96-well U-bottom plate with a cell density of 5×10\hat{ }5 cells/well. For live/dead stain, LIVE/DEAD® Fixable Aqua Dead Cell Stain Kit (Life technologies, L34957) was applied (1:1000 in PBS, 100 ul/well) to cells, and incubated at 4° C. for 10 min FACS buffer (2% FBS in PBS, 100 ul/well) was added to each well to terminate staining. Centrifuge (1200 rpm, 5 min) to discard supernatant and wash with FACS buffer once. Humanized anti-B7S1 antibodies were diluted in FACS buffer to according concentrations and added to each well (100 ul/well). Cells were incubated at 4° C. for 30 min, and then, washed twice with FACS buffer. […] Cells were incubated at 4° C. for 30 min, and then, washed twice with FACS buffer. […] For example, the binding EC₅₀ of the tested mAbs is in the sub nM range.

[4] = target: T2, human B7S1-his (Sinobiological, cat#10738-H08H-100) (human, UniProt Q7Z7D3 25-259); experiment: ELISA, antigen coated on plate
T2 construct: extracellular domain; Bought protein; also called human B7S1 extracellular domain; B7-H4; not shown: His tag
T2 sequence (looked up): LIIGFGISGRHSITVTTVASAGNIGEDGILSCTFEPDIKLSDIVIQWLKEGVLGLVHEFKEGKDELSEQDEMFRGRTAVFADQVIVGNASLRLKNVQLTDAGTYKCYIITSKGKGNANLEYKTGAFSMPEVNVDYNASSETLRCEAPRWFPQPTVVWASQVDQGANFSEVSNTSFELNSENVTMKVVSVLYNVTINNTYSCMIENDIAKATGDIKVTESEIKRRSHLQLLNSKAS
Method: (§2) In order to test humanized anti-B7S1 antibody binding affinity, an ELISA analysis was carried out. 2 μg/ml of human B7S1-his (Sinobiological, cat#10738-H08H-100), mouse B7S1-his (R&D system, cat#4206-B7-100), and cynomolgus B7S1 extracellular domain (Leu25-Ser259, NCBI Reference Sequence: XP_005542249.1) were coated on MaxiSorp 96-well plates (NUNC, 449824) in 0.5M carbonate/bicarbonate buffer, pH9.6, incubated at 4° C. over night. Coated plates were blocked with skimmed milk (5%, in PBST) for 1h. Humanized anti-B7S1 antibodies were diluted and added to the plates, and incubated for 2h at room temperature. Washed three times with PBST (lx PBS with 0.05% tween-20) to eliminate un-bounded antibodies. Goat anti-Human IgG-HRP (Easybio, BE0122, 1:5000 in PBS) was added and incubated for 1h. Washed three times with PBST (lx PBS with 0.05% tween-20) to eliminate un-bounded antibodies. TMB (eBioscience, 00-4201-56) was added (50 ul/well) for color rendering and stopped by 2N H₂SO₄ (50 ul/well). Optical density was measured at 450 nm and 570 nm.

[5] = target: T3, cynomolgus B7S1 extracellular domain (Leu25-Ser259, NCBI Reference Sequence: XP_005542249.1) (cynomolgus monkey); experiment: ELISA, antigen coated on plate
T3 construct: range 25-259; No tag or fusion partner is stated; also called cynomolgus monkey B7S1
Method: as §2

[6] = target: T4, mouse B7S1-his (R&D system, cat#4206-B7-100) (mouse, UniProt Q7TSP5 29-256); experiment: ELISA, antigen coated on plate
T4 construct: Bought protein; not shown: His tag
T4 sequence (looked up): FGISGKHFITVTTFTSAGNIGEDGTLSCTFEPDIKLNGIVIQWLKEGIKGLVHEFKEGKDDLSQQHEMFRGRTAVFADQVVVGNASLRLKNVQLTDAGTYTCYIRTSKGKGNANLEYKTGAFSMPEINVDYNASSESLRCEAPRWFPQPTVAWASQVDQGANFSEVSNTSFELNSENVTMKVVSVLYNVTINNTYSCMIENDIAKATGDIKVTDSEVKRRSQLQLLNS
Method: as §2

[7] = target: T2, human B7S1-his (Sinobiological, …); experiment: SPR, Biacore 8K, antibody captured by Fc, B7S1 as analyte
Method: FIG. 1. Experimental results of Surface Plasmon Resonance (SPR) binding analysis using Biacore 8K. The data of dissociation (kd) and association (ka) rate constants were obtained using Biacore 8K evaluation software. The equilibrium dissociation constants (KD) were calculated from the ratio of kd over ka.
In addition, the affinity of the above mAbs was further analyzed by Surface Plasmon Resonance (SPR) binding analysis using Biacore 8K. SPR is the resonant oscillation of conduction electrons at the interface between negative and positive permittivity material stimulated by incident light. Antibodies were immobilized on the sensor chip through Fc capture method. Human B7S1 (Sinobiological, cat#10738-H08H-100) was used as the analyte. The data of dissociation (kd) and association (ka) rate constants were obtained using Biacore 8K evaluation software. The equilibrium dissociation constants (KD) were calculated from the ratio of kd over ka.

EC50 [1]: 2.6 nM
EC50 [2]: < 3 nM
EC50 [3]: 3.8 nM
EC50 [4]: 0.52 nM
EC50 [5]: 8.09 nM
EC50 [6]: 1.09 nM
Kd [7]: 3.24 nM
koff [7]: 0.000265 s⁻¹
kon [7]: 81700 M⁻¹ s⁻¹
B1: humanized anti-B7S1 antibody VH1-5/VL4-5 (antibody, V domains shown)
VH: QVQLVQSGAEVKKPGASVKVSCKASGYTFTSYWMHWVKQAPGQGLEWIAAIYPGNSDTDYNQKFKGKAKITAVTSTSTAYMELSSLRSEDTAVYYCTTTVAHYFDYWGQGTMVTVSS
VL: EIVMTQSPATLSLSPGERATLTCKASQDVSFAVAWYQQKPGQAPKLLISSASYRYTGVPDRFSGSGSGTDFTLTISSLEPEDFAVYYCQQHYNTPLTFGGGTKVEIK
notes: Tested as a whole antibody with a human Fc (detected with anti-human IgG, Fc capture in SPR)

EC50 [1]: 2.4 nM
EC50 [2]: < 3 nM
EC50 [3]: 4.2 nM
EC50 [4]: 0.25 nM
EC50 [5]: 7.82 nM
EC50 [6]: 1.59 nM
Kd [7]: 4.08 nM
koff [7]: 0.000436 s⁻¹
kon [7]: 107000 M⁻¹ s⁻¹
B2: humanized anti-B7S1 antibody VH1-4/VL4-5 (antibody, V domains shown)
VH: B1 VH with K38R, A79V
VL: B1 VL
notes: as for B1

EC50 [1]: 3 nM
EC50 [2]: < 3 nM
EC50 [3]: 3.1 nM
EC50 [4]: 0.4 nM
EC50 [5]: 3.26 nM
EC50 [6]: 0.88 nM
Kd [7]: 1.86 nM
koff [7]: 0.000187 s⁻¹
kon [7]: 101000 M⁻¹ s⁻¹
B3: humanized anti-B7S1 antibody VH1-5/VL4-4 (antibody, V domains shown)
VH: B1 VH
VL: B1 VL with M4L, T22S, K45R
notes: as for B1

Reference: US20220089735A1 (SUZHOU KANOVA BIOPHARMACEUTICAL, published 2022)
